# Counter-ions that a name gives are not always drawn.
# Tests used:
# TCPTP [1] = target: T1, TCPTP (Homo sapiens, UniProt P17706); experiment: Phosphatase assay with recombinant, purified TCPTP (diFMUP substrate); type: biochemical; design: For phosphatase assays with purified protein, full length TCPTP was incubated in phosphatase reaction buffer; GST (N); made in house; host or cells: E. coli BL21 pLysS; conditions: FIG. 2B; for activation of TCPTP by small molecule compounds: preincubated with 0.2 μg/ml TCPTP 10 minutes RT, different concentrations
# T1 sequence (P17706 1-387 isoform P17706-2): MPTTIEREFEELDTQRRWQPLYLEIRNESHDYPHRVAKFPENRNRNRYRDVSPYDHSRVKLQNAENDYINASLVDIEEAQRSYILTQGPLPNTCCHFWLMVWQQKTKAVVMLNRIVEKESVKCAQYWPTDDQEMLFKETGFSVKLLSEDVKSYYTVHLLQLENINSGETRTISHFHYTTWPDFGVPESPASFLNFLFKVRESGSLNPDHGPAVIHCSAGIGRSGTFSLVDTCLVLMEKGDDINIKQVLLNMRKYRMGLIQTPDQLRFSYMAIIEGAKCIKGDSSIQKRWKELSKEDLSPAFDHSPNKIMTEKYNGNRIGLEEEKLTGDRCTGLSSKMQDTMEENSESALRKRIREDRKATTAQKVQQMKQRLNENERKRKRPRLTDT
# Method: Serum starved Hela cells were either left untreated on plastic, stimulated with 10% FBS for 30 min or detached and replated on collagen type I or poly-L-lysine (10 μg/ml, Sigma) coated tissue-culture plates for 1 h. When indicated cells were surface biotinylated as described^12. Cells were either lysed in Laemmli sample buffer and fractionated on SDS-PAGE for western blotting or lysed in lysis buffer and equal amounts of protein from each sample were precleared with protein G-Sepharose and subjected to immunoprecipitation. Antibodies (anti-TCPTP, Oncogene; anti-a1, anti-a5, anti-a6, all from Chemicon; anti-SHP-2, Santa Cruz) were incubated with protein G-Sepharose and immunoprecipitation was performed at 4° C. for 2 h. The immunoprecipitates were washed three times with cell lysis buffer. For co-precipitation assays, proteins were resolved on SDS-PAGE followed with western blotting or detection of biotin with Vectastain reagent (Vector). For phosphatase assays, immunoprecipitates were resuspended in phosphatase reaction buffer (25 mM Hepes pH 7.4, 50 mM NaCl, 1 mM DTT) and ⅓ of the reaction was subjected to western blotting and the remaining beads were assayed for phosphatase activity in triplicate using diFMUP (Molecular Probes) as a substrate and in the presence of serine/threonine phosphatase inhibitor cocktail (Sigma) according to manufacturers instructions. When indicate synthetic peptides were preincubated with the immunoprecipitates for 15 min prior to phosphatase assay reaction (α2 peptide […] (SEQ ID NO:6), a kind gift from Dr Heino). For phosphatase assays with purified protein, full length TCPTP was incubated in phosphatase reaction buffer in the presence or absence of TCPTP deletion mutant proteins and synthetic integrin cytoplasmic tail peptides as indicated. […] The phosphatase reaction was allowed to proceed for 10 minutes in RT and stopped with urea followed with measurement of umbelliferone fluorescence according to manufacturers instructions (Molecular Probes). Western blotting was performed with commercial antibodies raised against EGFR, EGFR(PY)845, 992 or 1068 (Cell Signalling Technologies), TCPTP (Oncogene) or tubulin (Santa Cruz Biotechnology). Specific binding of antibodies was detected with peroxidase-conjugated secondary antibodies and visualized by enhanced chemiluminescence detection.
# TCPTP [2] = target: T2, TCPTP (Homo sapiens, UniProt P17706); experiment: Phosphatase assay of immunoprecipitated TCPTP from HeLa lysates (diFMUP substrate); type: biochemical; conditions: peptide preincubated with immunoprecipitate 15 min; FIG. 2A
# T2 construct: endogenous in cells; host or cells: HeLa
# T2 sequence (P17706 1-415): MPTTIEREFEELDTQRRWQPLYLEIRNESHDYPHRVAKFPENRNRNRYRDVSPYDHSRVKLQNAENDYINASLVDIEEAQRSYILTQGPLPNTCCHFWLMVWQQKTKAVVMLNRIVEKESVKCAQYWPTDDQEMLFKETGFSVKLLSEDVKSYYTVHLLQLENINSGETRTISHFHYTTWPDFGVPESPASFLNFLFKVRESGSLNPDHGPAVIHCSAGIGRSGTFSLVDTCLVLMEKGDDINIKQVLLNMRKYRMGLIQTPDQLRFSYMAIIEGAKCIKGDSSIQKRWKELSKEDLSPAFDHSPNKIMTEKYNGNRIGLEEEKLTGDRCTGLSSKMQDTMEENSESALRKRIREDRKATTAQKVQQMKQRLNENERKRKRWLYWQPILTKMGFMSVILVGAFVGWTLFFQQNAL
# Method: (§1) Serum starved Hela cells were either left untreated on plastic, stimulated with 10% FBS for 30 min or detached and replated on collagen type I or poly-L-lysine (10 μg/ml, Sigma) coated tissue-culture plates for 1 h. When indicated cells were surface biotinylated as described^12. Cells were either lysed in Laemmli sample buffer and fractionated on SDS-PAGE for western blotting or lysed in lysis buffer and equal amounts of protein from each sample were precleared with protein G-Sepharose and subjected to immunoprecipitation. Antibodies (anti-TCPTP, Oncogene; anti-a1, anti-a5, anti-a6, all from Chemicon; anti-SHP-2, Santa Cruz) were incubated with protein G-Sepharose and immunoprecipitation was performed at 4° C. for 2 h. The immunoprecipitates were washed three times with cell lysis buffer. For co-precipitation assays, proteins were resolved on SDS-PAGE followed with western blotting or detection of biotin with Vectastain reagent (Vector). […] The phosphatase reaction was allowed to proceed for 10 minutes in RT and stopped with urea followed with measurement of umbelliferone fluorescence according to manufacturers instructions (Molecular Probes). […] Specific binding of antibodies was detected with peroxidase-conjugated secondary antibodies and visualized by enhanced chemiluminescence detection.
# SHP-2 = target: T3, SHP-2 (Homo sapiens, UniProt Q06124); experiment: Phosphatase assay of immunoprecipitated SHP-2 from HeLa lysates (diFMUP substrate); type: biochemical; conditions: FIG. 2A
# T3 construct: endogenous in cells; host or cells: HeLa
# T3 sequence (Q06124 1-593): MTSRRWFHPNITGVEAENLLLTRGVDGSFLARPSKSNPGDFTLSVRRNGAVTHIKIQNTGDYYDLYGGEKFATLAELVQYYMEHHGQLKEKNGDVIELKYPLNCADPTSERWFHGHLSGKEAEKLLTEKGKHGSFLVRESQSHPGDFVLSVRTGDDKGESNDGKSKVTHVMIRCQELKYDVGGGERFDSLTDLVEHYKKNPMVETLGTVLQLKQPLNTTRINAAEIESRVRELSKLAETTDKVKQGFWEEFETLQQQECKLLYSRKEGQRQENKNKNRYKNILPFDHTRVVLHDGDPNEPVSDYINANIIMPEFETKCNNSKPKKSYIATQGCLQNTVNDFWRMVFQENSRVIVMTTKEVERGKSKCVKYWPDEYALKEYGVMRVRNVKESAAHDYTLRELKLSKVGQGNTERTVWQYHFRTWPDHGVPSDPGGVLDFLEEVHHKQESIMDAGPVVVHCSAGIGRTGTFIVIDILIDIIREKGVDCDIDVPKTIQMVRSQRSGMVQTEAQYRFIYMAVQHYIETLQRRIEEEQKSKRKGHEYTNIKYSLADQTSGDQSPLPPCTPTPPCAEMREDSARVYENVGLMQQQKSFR
# Method: as §1
# HeLa cells = experiment: Microinjection of fluorescein diphosphate (FDP) and peptide into live HeLa cells, phosphatase activity; type: cell-based, human; conditions: 1 mg/ml peptide co-injected with 1 mM FDP, 30 min; compared with α2 or PBS; FIG. 4A
# Method: Cells were plated on acid-washed glass coverslips coated with collagen type I, fibronectin or poly-L-lysine (10 μg/ml) and allowed to adhere for 1 h. Cells were washed in PBS and fixed with 4% paraformaldehyde for 10 min. For antibody staining, cells were permeabilized in PBS/0.1% Triton X-100 and washed with PBS/1% (w/v) BSA for blocking. Cells were stained with antibodies as indicated for 1 h at room temperature. Cells were then washed three times with PBS before detection with Alexa-488 or Alexa-555-conjugated anti-rabbit or anti-mouse antibodies (Molecular Probes). After washing in PBS and water, cells were mounted in Mowiol (100 mM Tris-HCl at pH 8.5, 10% (w/v) Mowiol (Calbiochem, San Diego, Calif.) and 25% (v/v) glycerol containing antifade (2.5% (w/v) 1,4-diazadicyclo-2.2.2-octane (Sigma)). Slides were examined using Zeiss inverted fluorescence microscope or a confocal laser scanning microscope (Axioplan 2 with LSM 510; Carl Zeiss Inc., Jena, Germany) equipped with 63×/1.4 Plan-Apochromat oil immersion objectives. Confocal images represent a single z-section of approximately 1.0 μm. Cytosolic microinjections with 1 mM FDP (Molecular probes) and 1 mg/ml of peptide in PBS were performed on Hela cells cultured on glass-bottom 3 cm plates. Fluorescence images from live cells were taken with identical settings and intensities were quantified using Zeiss Axioplan4 software.
# TCPTP [3] = target: T1, TCPTP; experiment: Pull-down competition: purified TCPTP with GST-α1cyt fusion protein; type: binding; design: purified full-length TCPTP was incubated in the lysis buffer with GST-fusion proteins; GST (N); made in house; host or cells: E. coli BL21 pLysS; conditions: peptide 1 μg/ml, TCPTP 1 μg; FIG. 1F
# Method: α1cyt and a2cyt were subcloned into pGEX4T1 (Amersham Biosciences). Full length TCPTP (45 kD) and its deletion mutants were PCR-amplified from pCG-TC45 plasmid^11 and cloned into pGEX-6P-1. GST-fusion proteins were expressed in E. coli (BL21 pLysS) and purified using manufacturer's instructions (Amersham Biosciences). Fusion proteins were either used immobilized to Glutathione-sepharose, eluted with 25 mM glutathione or GST was cleaved using precision protease according to manufacturers instructions (Amersham Biosciences). For pull-down assays, Hela cells were lysed to lysis buffer (1% octylglycoside, 50 mM Tris-HCl pH 7.5, 150 mM NaCl, 1 mM MgCl2, complete protease inhibitor (Roche)), clarified with centrifugation 10 min 13000 rpm+4 C, precleared with glutathione-sepharose and incubated with immobilized GST-fusion proteins and washed 3 times with 1 ml on the same buffer. Bound proteins were resolved on SDS-PAGE and detected with western blot. Alternatively, purified full-length TCPTP was incubated in the lysis buffer with GST-fusion proteins as indicated in the presence or absence of synthetic integrin α1 cytoplasmic tail peptide (RPLKKKMEKRPLKKKMEK, (SEQ ID NO:5) Genemed Synthesis).
activation of TCPTP by small molecule compounds (TCPTP [1]),increase of catalytic activity of immunoprecipitated TCPTP (TCPTP [2]),activation of SHP-2 phosphatase (SHP-2),Compound,also measured
,no effect,not activated,α2 tail peptide: synthetic α2 integrin cytoplasmic tail peptide KLGFFKRKYEKMTKNPDEIDETTELSS (SEQ ID NO:6) (fusion protein),
,2.95±0.48 fold,not activated,"synthetic α1 tail peptide: synthetic integrin α1 cytoplasmic tail peptide RPLKKKMEKRPLKKKMEK (SEQ ID NO:5), Genemed Synthesis (fusion protein)","phosphatase activity in live HeLa cells (FDP fluorescence) (HeLa cells): induced phosphatase activity; competition with α1cyt for the association with TCPTP (TCPTP [3]): able to compete; activation of recombinant, purified TCPTP by peptide (TCPTP [1]; TCPTP 0.15 μg/ml, different peptide concentrations): highly activated"
able to activate TCPTP,,,N.N.N.N.N.N.N.N.N.N.N.N.N.N.[Cl-].[Cl-].[Cl-].[Cl-].[Cl-].[Cl-].[O-2].[O-2].[Ru+3].[Ru+3].[Ru+4] [Ruthenium Red],

# Second part, the compound before the results:
Compound,activation of TCPTP by small molecule compounds (TCPTP [1]),increase of catalytic activity of immunoprecipitated TCPTP (TCPTP [2]),activation of SHP-2 phosphatase (SHP-2),also measured
NCCCCNCCCN [Spermidine],able to activate TCPTP,,,
"NCCC1CCCC(CCN)N1 (centres unmarked) [MDL-26,630 trihydrochloride]",able to activate TCPTP,,,
O=C1c2c(O)ccc(O)c2C(=O)c2c(NCCNCCO)ccc(NCCNCCO)c21 [Mitoxantrone],able to activate TCPTP,,,
